Key:
Assay type in all cases: cell-based
RAJI cells = assay: JNG assay, co-culture with RAJI cells
Method in brief: (§1)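 Read-out is NFAT-driven GFP measured by flow cytometry after ~4–18 h co-culture of SAR-expressing JNG cells with target cells (E:T about 1:2). SARs were introduced by lentiviral spinfection and selected with puromycin or blasticidin when possible; scores (+/- to 5+ ≈ 5–50% GFP+) are relative to parental JNG cells.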

RAJI-CD19-KO cells = assay: JNG assay, co-culture with RAJI-CD19-KO cells; settings: co-culture with Raji-CD19-KO
Method in brief: as §1

SKOV-3 cells = assay: JNG assay, co-culture with SKOV-3 cells; settings: for NFAT-GFP ASSAY: SKOV-3: co-culture with SKOV-3
Procedure: Cellular supernatant is collected and assayed for the induction of cytokines (e.g., IL2).
JNG (Jurkat cells expressing EGFP under an NFAT promoter) were infected with lentiviral vectors encoding different single chain and multi-chain SARs by spinfection in the presence of 8 µg/ml of Polybrene® (Sigma, Catalog no. H9268). The Jurkat-NFAT-GFP cells are engineered in such a way that the IL-2 promoter, which carries NFAT binding sites, is cloned upstream of the GFP gene. These cells have been used to study signaling via TCR and CAR. The different SARs were stably expressed in Jurkat NFAT-GFP cells by lentiviral mediated gene transfer, followed by selection with puromycin or blasticidin. No drug selection was used in case the construct lacked an antibiotic resistance gene. The SAR-expressing Jurkat-NFAT-GFP cells were cocultured with the target cells at E:T ratio of approximately 1:2 for approximately 4 hours to 18 hours. When the interaction between SIRs and their target antigen results in activation of the NFAT pathway, GFP expression is induced. […] GFP expression was monitored by FACS analysis. The Jurkat-NFAT-GFP (parental) cells were used as control. The structure of different constructs can be determined based on their names. […] The sequence of the other constructs in the table can be similarly determined from their names and by referring to the different Tables of this disclosure that provide the names and SEQ ID NO of the different modules. Alternatively, the composition and modular architecture of the different SAR constructs can be determined from their sequences by bioinformatics tools, including using nucleic acid and amino acids homology searches. A SAR is considered positive in the assay in case the SAR expressing Jurkat-NFAT-GFP cells show greater % GFP positive cells when cultured with the target cell line as compared to parental Jurkat-NFAT-GFP cells. […] In general, the number +/-, +, 2+, 3+, 4+, 5+ refer to approximately 5%, 10%, 20%, 30%, 40% and 50% GFP positive cells. The % of GFP induction in the above assay is dependent not only the relative strength of the SAR but also, among other factors, on the relative level of expression of the SAR in the JNG cells and the relative level of expression of the target antigen in the target cell line. To control for the difference in gene transduction efficiency of the different SAR constructs, the experiment was conducted with JNG cells transduced with SAR constructs co-expressing a drug resistance gene (e.g., puromycin or PAC) followed by drug selection to generate a stable population of SAR-expressing cells. It is to be noted that the drug resistance gene (e.g., PAC) in the SAR constructs is optional and in vivo studies were conducted with SAR constructs lacking the PAC gene.

Nalm6 cells = assay: JNG assay, co-culture with Nalm6 cells; settings: for NFAT-GFP ASSAY: Nalm6: co-culture with Nalm6
Method in brief: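 GFP expression induced through the NFAT pathway was monitored by FACS once SAR-bearing Jurkat reporters had been cultured with target cells at an approximate 1:2 ratio for 4 to 18 hours; parental reporter cells served as the baseline.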

L363 cells = assay: JNG assay, co-culture with L363 cells; settings: co-culture with L363
Method in brief: as §1

B1: 22166 (protein)
chain: MALPVTALLLPLALLLHAARPEVQLQESGGGLVQPGGSLRLSCAASGRTFSSLFMGWFRQAPGKERELVAAISRYSLYTYYADSVKGRFTISADNAKNAVYLQMNSLKPEDTAVYYCASKLEYTSNDYDSWGQGTQVTVSSGTGGGGSGGGGSGGGGSEFDIQMTQSPSSLSASVGDRVTITCKASDHINNWLAWYQQKPGQAPKLLIYGATTLETGVPSRFSGSGSGTDYTLTISSLQPEDFATYYCQQSWNTPWTFGQGTKLEIKRLEIQNPDPAVYQLRDSKSSDKSVCLFTDFDSQTNVSQSKDSDVYITDKCVLDMRSMDFKSNSAVAWSNKSDFACANAFNNSIIPEDTFFPSSDVPCDVKLVEKSFETDTNLNFQNLSVIGFRILLLKVAGFNLLMTLRLWSSRAKRSGSGVKQTLNFDLLKLAGDVESNPGPTSATMDWIWRILFLVGAATGAHSGPQVQLQESGGGLAQAGGSLRLSCAASGRTFSMGWFRQAPGKEREFVAAITYSGGSPYYASSVRGRFTISRDNAKNTVYLQMNSLKPEDTAVYYCAANPTYGSDWNAENWGQGTQVTVSSGSGGGGSGGGGSGGGGSFEQVQLQQPGAELVKPGASVKMSCKASGYAFSSYWINWMKQKPGQGLEWIGQIYPGDGDTNYNGKFKGRATLTADTSSSTAYMQLSSLTSEDSAVYFCARSITTVVGCAMDYWGQGTSVTVSSTREDLKNVFPPEVAVFEPSKAEIAHTQKATLVCLATGFYPDHVELSWWVNGKEVHSGVCTDPQPLKEQPALNDSRYCLSSRLRVSATFWQNPRNHFRCQVQFYGLSENDEWTQDRAKPVTQIVSAEAWGRADCGITSASYHQGVLSATILYEILLGKATLYAVLVSALVLMAMVKRKDSRGRAKRSGSGATNFSLLKQAGDVEENPGPSRGHMTEYKPTVRLATRDDVPRAVRTLAAAFADYPATRHTVDPDRHIERVTELQELFLTRVGLDIGKVWVADDGAAVAVWTTPESVEAGAVFAEIGPRMAELSGSRLAAQQQMEGLLAPHRPKEPAWFLATVGVSPDHQGKGLGSAVVLPGVEAAERAGVPAFLETSAPRNLPFYERLGFTVTADVEVPEGPRTWCMTRKPGA
- NFAT-GFP ASSAY: Raji (RAJI cells; JNG cells expressing construct, co-culture with Raji): 2+ (refer to approximately 5%, 10%, 20%, 30%, 40% and 50% GFP positive cells)
- NFAT-GFP ASSAY: Raji-CD19-KO (RAJI-CD19-KO cells): 2+ (refer to approximately 5%, 10%, 20%, 30%, 40% and 50% GFP positive cells)
- NFAT-GFP ASSAY: SKOV-3 (SKOV-3 cells): 2+ (refer to approximately 5%, 10%, 20%, 30%, 40% and 50% GFP positive cells)
- NFAT-GFP ASSAY: Nalm6 (Nalm6 cells): 3+ (refer to approximately 5%, 10%, 20%, 30%, 40% and 50% GFP positive cells)

B2: SEQ ID NO: 22177: trispecific SAR construct targeting CD19 and CD20 and coexpressing the ligand binding domain of NKG2D (protein)
chain: MALPVTALLLPLALLLHAARPLFNQEVQIPLTESYCGPCPKNWICYKNNCYQFFDESKNWYESQASCMSQNASLLKVYSKEDQDLLKLVKSYHWMGLVHIPTNGSWQWEDGSILSPNLLTIIEMQKGDCALYASSFKGYIENCSTPNTYICMQRTVGGGGSGGGGSGGGGSDLFNQEVQIPLTESYCGPCPKNWICYKNNCYQFFDESKNWYESQASCMSQNASLLKVYSKEDQDLLKLVKSYHWMGLVHIPTNGSWQWEDGSILSPNLLTIIEMQKGDCALYASSFKGYIENCSTPNTYICMQRTVGTGGGGSGGGGSGGGGSEFDIQMTQSPSSLSASVGDRVTITCKASDHINNWLAWYQQKPGQAPKLLIYGATTLETGVPSRFSGSGSGTDYTLTISSLQPEDFATYYCQQSWNTPWTFGQGTKLEIKRLEDLKNVFPPEVAVFEPSKAEIAHTQKATLVCLATGFYPDHVELSWWVNGKEVHSGVCTDPQPLKEQPALNDSRYCLSSRLRVSATFWQNPRNHFRCQVQFYGLSENDEWTQDRAKPVTQIVSAEAWGRADCGITSASYHQGVLSATILYEILLGKATLYAVLVSALVLMAMVKRKDSRGRAKRSGSGATNFSLLKQAGDVEENPGPTSATMDWIWRILFLVGAATGAHSGPQVQLQESGGGLAQAGGSLRLSCAASGRTFSMGWFRQAPGKEREFVAAITYSGGSPYYASSVRGRFTISRDNAKNTVYLQMNSLKPEDTAVYYCAANPTYGSDWNAENWGQGTQVTVSSGSGGGGSGGGGSGGGGSFEQVQLQQPGAELVKPGASVKMSCKASGYAFSSYWINWMKQKPGQGLEWIGQIYPGDGDTNYNGKFKGRATLTADTSSSTAYMQLSSLTSEDSAVYFCARSITTVVGCAMDYWGQGTSVTVSSTRIQNPDPAVYQLRDSKSSDKSVCLFTDFDSQTNVSQSKDSDVYITDKCVLDMRSMDFKSNSAVAWSNKSDFACANAFNNSIIPEDTFFPSSDVPCDVKLVEKSFETDTNLNFQNLSVIGFRILLLKVAGFNLLMTLRLWSSRAKRSGSGVKQTLNFDLLKLAGDVESNPGPSRGHMTEYKPTVRLATRDDVPRAVRTLAAAFADYPATRHTVDPDRHIERVTELQELFLTRVGLDIGKVWVADDGAAVAVWTTPESVEAGAVFAEIGPRMAELSGSRLAAQQQMEGLLAPHRPKEPAWFLATVGVSPDHQGKGLGSAVVLPGVEAAERAGVPAFLETSAPRNLPFYERLGFTVTADVEVPEGPRTWCMTRKPGA
- GFP induction / activity (RAJI cells; co-culture with RAJI cells): robust activity
- GFP induction / activity (SKOV-3 cells; co-culture with SKOV-3 cells): robust activity
- GFP induction / activity (Nalm6 cells; co-culture with Nalm6 cells): robust activity

B3: 22177 (protein)
chain: MALPVTALLLPLALLLHAARPLFNQEVQIPLTESYCGPCPKNWICYKNNCYQFFDESKNWYESQASCMSQNASLLKVYSKEDQDLLKLVKSYHWMGLVHIPTNGSWQWEDGSILSPNLLTIIEMQKGDCALYASSFKGYIENCSTPNTYICMQRTVGGGGSGGGGSGGGGSDLFNQEVQIPLTESYCGPCPKNWICYKNNCYQFFDESKNWYESQASCMSQNASLLKVYSKEDQDLLKLVKSYHWMGLVHIPTNGSWQWEDGSILSPNLLTIIEMQKGDCALYASSFKGYIENCSTPNTYICMQRTVGTGGGGSGGGGSGGGGSEFDIQMTQSPSSLSASVGDRVTITCKASDHINNWLAWYQQKPGQAPKLLIYGATTLETGVPSRFSGSGSGTDYTLTISSLQPEDFATYYCQQSWNTPWTFGQGTKLEIKRLEDLKNVFPPEVAVFEPSKAEIAHTQKATLVCLATGFYPDHVELSWWVNGKEVHSGVCTDPQPLKEQPALNDSRYCLSSRLRVSATFWQNPRNHFRCQVQFYGLSENDEWTQDRAKPVTQIVSAEAWGRADCGITSASYHQGVLSATILYEILLGKATLYAVLVSALVLMAMVKRKDSRGRAKRSGSGATNFSLLKQAGDVEENPGPTSATMDWIWRILFLVGAATGAHSGPQVQLQESGGGLAQAGGSLRLSCAASGRTFSMGWFRQAPGKEREFVAAITYSGGSPYYASSVRGRFTISRDNAKNTVYLQMNSLKPEDTAVYYCAANPTYGSDWNAENWGQGTQVTVSSGSGGGGSGGGGSGGGGSFEQVQLQQPGAELVKPGASVKMSCKASGYAFSSYWINWMKQKPGQGLEWIGQIYPGDGDTNYNGKFKGRATLTADTSSSTAYMQLSSLTSEDSAVYFCARSITTVVGCAMDYWGQGTSVTVSSTRIQNPDPAVYQLRDSKSSDKSVCLFTDFDSQTNVSQSKDSDVYITDKCVLDMRSMDFKSNSAVAWSNKSDFACANAFNNSIIPEDTFFPSSDVPCDVKLVEKSFETDTNLNFQNLSVIGFRILLLKVAGFNLLMTLRLWSSRAKRSGSGVKQTLNFDLLKLAGDVESNPGPSRGHMTEYKPTVRLATRDDVPRAVRTLAAAFADYPATRHTVDPDRHIERVTELQELFLTRVGLDIGKVWVADDGAAVAVWTTPESVEAGAVFAEIGPRMAELSGSRLAAQQQMEGLLAPHRPKEPAWFLATVGVSPDHQGKGLGSAVVLPGVEAAERAGVPAFLETSAPRNLPFYERLGFTVTADVEVPEGPRTWCMTRKPGA
- NFAT-GFP ASSAY: Raji-CD19-KO (RAJI-CD19-KO cells): 2+ (refer to approximately 5%, 10%, 20%, 30%, 40% and 50% GFP positive cells)
- NFAT-GFP ASSAY: SKOV-3 (SKOV-3 cells): 2+ (refer to approximately 5%, 10%, 20%, 30%, 40% and 50% GFP positive cells)
- NFAT-GFP ASSAY: Nalm6 (Nalm6 cells): 3+ (refer to approximately 5%, 10%, 20%, 30%, 40% and 50% GFP positive cells)
- NFAT-GFP ASSAY: L363 (L363 cells): + (refer to approximately 5%, 10%, 20%, 30%, 40% and 50% GFP positive cells)

— patent US20230212319A1, “NOVEL ANTIGEN BINDING DOMAINS AND SYNTHETIC ANTIGEN RECEPTORS INCORPORATING THE SAME” (University of Southern California, priority 2020, published 2023)
